Source: article PMC11574045, “A cofactor-induced repressive type of transcription factor condensation can be induced by synthetic peptides to suppress tumorigenesis” (The EMBO Journal, 2024)

Tested on: HEK293FT cells transfected with TF library
Assay: Screening of TF condensates based on fluorescent puncta
Assay type: cell-based
Settings: Figure 1B numerical data; TF library screen, one value per transcriptional factor
Summary of the method: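 HEK293FT, PEI transfection of TF library, 60 h; ±glucose 12 h; 4% PFA fix, 0.05% Triton X-100 permeabilization, 5% BSA block; anti-Flag/anti-GAL4 overnight at 4 °C, Alexa 488 secondary 1 h; high-content imaging, 50 fields/well.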

B1: ZNF550 (protein, UniProt Q7Z398 1-422, looked up)
Zinc finger protein 550: MAETKDAAQMLVTFKDVAVTFTREEWRQLDLAQRTLYREVMLETCGLLVSLGHRVPKPELVHLLEHGQELWIVKRGLSHATCAGDRAQVHTREPTTYPPVLSERAFLRGSLTLESSTSSDSRLGRARDEEGLLEMQKGKVTPETDLHKETHLGKVSLEGEGLGTDDGLHSRALQEWLSADVLHECDSQQPGKDALIHAGTNPYKCKQCGKGFNRKWYLVRHQRVHTGMKPYECNACGKAFSQSSTLIRHYLIHTGEKPYKCLECGKAFKRRSYLMQHHPIHTGEKPYECSQCRKAFTHRSTFIRHNRTHTGEKPFECKECEKAFSNRAHLIQHYIIHTGEKPYDCMACGKAFRCSSELIQHQRIHTGEKPYECTQCGKAFHRSTYLIQHSVIHTGEMPYKCIECGKAFKRRSHLLQHQRVHT
- Z score of condensed fraction: -0.5599

B2: ZNF576 (protein, UniProt Q9H609 1-170, looked up)
Zinc finger protein 576: MEDPNPEENMKQQDSPKERSPQSPGGNICHLGAPKCTRCLITFADSKFQERHMKREHPADFVAQKLQGVLFICFTCARSFPSSKALITHQRSHGPAAKPTLPVATTTAQPTFPCPDCGKTFGQAVSLRRHRQMHEVRAPPGTFACTECGQDFAQEAGLHQHYIRHARGEL
- Z score of condensed fraction: -0.3795

B3: ZNF581 (protein, UniProt Q9P0T4 1-197, looked up)
Zinc finger protein 581: MLVLPSPCPQPLAFSSVETMEGPPRRTCRSPEPGPSSSIGSPQASSPPRPNHYLLIDTQGVPYTVLVDEESQREPGASGAPGQKKCYSCPVCSRVFEYMSYLQRHSITHSEVKPFECDICGKAFKRASHLARHHSIHLAGGGRPHGCPLCPRRFRDAGELAQHSRVHSGERPFQCPHCPRRFMEQNTLQKHTRWKHP
- Z score of condensed fraction: -0.1395

B4: ZNF586 (protein, UniProt Q9NXT0 1-402, looked up)
Zinc finger protein 586: MAAAAALRAPAQSSVTFEDVAVNFSLEEWSLLNEAQRCLYRDVMLETLTLISSLGCWHGGEDEAAPSKQSTCIHIYKDQGGHSGERPYECGEYRKLFKNKSCLTEPRRDHKHRNVRTGERPYECSKYGKLFHQKPTLHIHERFHTGQKTYECSECGKSFHQSSSLLQRQTLHTRERPYECIECGKAFAEKSSLINHRKVHSGAKRYECNECGKSFAYTSSLIKHRRIHTGERPYECSECGRSFAENSSLIKHLRVHTGERPYECVECGKSFRRSSSLLQHQRVHTRERPYECSECGKSFSLRSNLIHHQRVHTGERHECGQCGKSFSRKSSLIIHLRVHTGERPYECSDCGKSFAENSSLIKHLRVHTGERPYECIDCGKSFRHSSSFRRHQRVHTGMRPYK
- Z score of condensed fraction: 0.1456

B5: ZNF501 (protein, UniProt Q96CX3 1-271, looked up)
Zinc finger protein 501: MNSSQISLRMKHGRVNMQKKPSKCSECGKFFTQRSSLTQHQRIHRGEKPYVCSECGSCFRKQSNLTQHLRIHTGEKPYKCNECEKAFQTKAILVQHLRIHTGEKPYKCNECGKAFCQSPSLIKHQRIHTGEKPYKCTECGKAFSQSICLTRHQRSHSGDKPFKCNECGKAFNQSACLMQHQRIHSGEKPYTCTECGKAFTQNSSLVEHERTHTGEKLYKCSECEKTFRKQAHLSEHYRIHTGEKPYECVGCGKSFRHSSALLRHQRLHAGE
- Z score of condensed fraction: -1.032

B6: ZNF563 (protein, UniProt Q8TA94 1-476, looked up)
Zinc finger protein 563: MDAVAFEDVAVNFTQEEWALLGPSQKNLYRYVMQETIRNLDCIRMIWEEQNTEDQYKNPRRNLRCHMVERFSESKDSSQCGETFSLIRDSIVNNSICPGEDPCQSAECEEVIMGHLSLNSHIRVDSGHKPHEYQEYGEKPHTHKQRGKAFSYHHSFQSRGRPHTGKKRYECKECGKTFSSRRNLRRHMVVQGGNRPYKCKLCGKAFFWPSLLRMHERTHTGEKPYECKQCSKAFPFYSSYRRHERMHTGEKPYECKQCSKALPDSSSYIRHERTHTGEKPYTCKQCGKAFSVSSSLRRHETTHSAEKPYECKQCGKTFHHLGSFQIHMKRHTGDRPHKCKICGKGFDRPSLVRYHERIHTGEKPYECKQCGKTLSHSSSFRRHMIMHTGGGPHKCKICGKAFVYPSVCQRHEKSHSGEKPYECKQCGKALSHSSSFRRHMVMHTGDGPNKCKVCGKAFVYPSVCQRHEKTHWRETI
- Z score of condensed fraction: -0.4635

B7: ZNF512 (protein, UniProt Q96ME7 1-567, looked up)
Zinc finger protein 512: MSSRLGAVPATSGPTTFKQQRSTRIVGAKNSRTQCSIKDNSFQYTIPHDDSLSGSSSASSCEPVSDFPASFRKSTYWMKMRRIKPAATSHVEGSGGVSAKGKRKPRQEEDEDYREFPQKKHKLYGRKQRPKTQPNPKSQARRIRKEPPVYAAGSLEEQWYLEIVDKGSVSCPTCQAVGRKTIEGLKKHMENCKQEMFTCHHCGKQLRSLAGMKYHVMANHNSLPILKAGDEIDEPSERERLRTVLKRLGKLRCMRESCSSSFTSIMGYLYHVRKCGKGAAELEKMTLKCHHCGKPYRSKAGLAYHLRSEHGPISFFPESGQPECLKEMNLESKSGGRVQRRSAKIAVYHLQELASAELAKEWPKRKVLQDLVPDDRKLKYTRPGLPTFSQEVLHKWKTDIKKYHRIQCPNQGCEAVYSSVSGLKAHLGSCTLGNFVAGKYKCLLCQKEFVSESGVKYHINSVHAEDWFVVNPTTTKSFEKLMKIKQRQQEEEKRRQQHRSRRSLRRRQQPGIELPETELSLRVGKDQRRNNEELVVSASCKEPEQEPVPAQFQKVKPPKTNHKRGRK
- Z score of condensed fraction: -0.5967

B8: ZNF488 (protein, UniProt Q96MN9 1-340, looked up)
Zinc finger protein 488: MPEWPPCLSVAPALVITMAAGKGAPLSPSAENRWRLSEPELGRGCKPVLLEKTNRLGPEAAVGRAGRDVGSAELALLVAPGKPRPGKPLPPKTRGEQRQSAFTELPRMKDRQVDAQAQEREHDDPTGQPGAPQLTQNIPRGPAGSKVFSVWPSGARSEQRSAFSKPTKRPAERPELTSVFPAGESADALGELSGLLNTTDLACWGRLSTPKLLVGDLWNLQALPQNAPLCSTFLGAPTLWLEHTQAQVPPPSSSSTTSWALLPPTLTSLGLSTQNWCAKCNLSFRLTSDLVFHMRSHHKKEHAGPDPHSQKRREEALACPVCQEHFRERHHLSRHMTSHS
- Z score of condensed fraction: -0.1473

B9: CDKN2C (protein, UniProt P42773 1-168, looked up)
Cyclin-dependent kinase 4 …: MAEPWGNELASAAARGDLEQLTSLLQNNVNVNAQNGFGRTALQVMKLGNPEIARRLLLRGANPDLKDRTGFAVIHDAARAGFLDTLQTLLEFQADVNIEDNEGNLPLHLAAKEGHLRVVEFLVKHTASNVGHRNHKGDTACDLARLYGRNEVVSLMQANGAGGATNLQ
- Z score of condensed fraction: -0.5488

B10: ZNF671 (protein, UniProt Q8TAW3 1-534, looked up)
Zinc finger protein 671: MLSPVSRDASDALQGRKCLRPRSRRLPLPAAVRAHGPMAELTDSARGCVVFEDVFVYFSREEWELLDDAQRLLYHDVMLENFALLASLGIAFSRSRAVMKLERGEEPWVYDQVDMTSATEREAQRGLRPGCWHGVEDEEVSSEQSIFVAGVSEVRTLMAELESHPCDICGPILKDTLHLAKYHGGKARQKPYLCGACGKQFWFSTDFDQHQNQPNGGKLFPRKEGRDSVKSCRVHVPEKTLTCGKGRRDFSATSGLLQHQASLSSMKPHKSTKLVSGFLMGQRYHRCGECGKAFTRKDTLARHQRIHTGERPYECNECGKFFSQSYDLFKHQTVHTGERPYECSECGKFFRQISGLIEHRRVHTGERLYQCGKCGKFFSSKSNLIRHQEVHTGARPYVCSECGKEFSRKHTLVLHQRTHTGERPYECSECGKAFSQSSHLNVHWRIHSSDYECSRCGKAFSCISKLIQHQKVHSGEKPYECSKCGKAFTQRPNLIRHWKVHTGERPYVCSECGREFIRKQTLVLHQRVHAGEKL
- Z score of condensed fraction: -0.9445

B11: CCNH (protein, UniProt P51946 1-323, looked up)
Cyclin-H: MYHNSSQKRHWTFSSEEQLARLRADANRKFRCKAVANGKVLPNDPVFLEPHEEMTLCKYYEKRLLEFCSVFKPAMPRSVVGTACMYFKRFYLNNSVMEYHPRIIMLTCAFLACKVDEFNVSSPQFVGNLRESPLGQEKALEQILEYELLLIQQLNFHLIVHNPYRPFEGFLIDLKTRYPILENPEILRKTADDFLNRIALTDAYLLYTPSQIALTAILSSASRAGITMESYLSESLMLKENRTCLSQLLDIMKSMRNLVKKYEPPRSEEVAVLKQKLERCHSAELALNVITKKRKGYEDDDYVSKKSKHEEEEWTDDDLVESL
- Z score of condensed fraction: -0.9342

B12: ZNF555 (protein, UniProt Q8NEP9 1-628, looked up)
Zinc finger protein 555: MDSVVFEDVAVDFTLEEWALLDSAQRDLYRDVMLETFQNLASVDDETQFKASGSVSQQDIYGEKIPKESKIATFTRNVSWASVLGKIWDSLSIEDQTTNQGRNLSRNHGLERLCESNDQCGEALSQIPHLNLYKKIPPGVKQYEYNTYGKVFMHRRTSLKSPITVHTGHKPYQCQECGQAYSCRSHLRMHVRTHNGERPYVCKLCGKTFPRTSSLNRHVRIHTAEKTYECKQCGKAFIDFSSLTSHLRSHTGEKPYKCKECGKAFSYSSTFRRHTITHTGEKPYKCKECAEAFSYSSTFRRHMISHTGEKPHKCKECGEAFSYSSAFRRHMITHTGEKPYECKQCGKTFIYLQSFRRHERIHTGEKPYECKQCGKTFIYPQSFRRHERTHGGEKPYECNQCGKAFSHPSSFRGHMRVHTGEKPYECKQCGKTFNWPISLRKHMRTHTREKPYECKQCGKAFSLSACFREHVRMHPEDKSYECKLCGKAFYCHISLQKHMRRHTAEKLYKCKQCGKAFSWPELLQQHVRTHTVEKPYECKECGKVFKWPSSLPIHMRLHTGEKPYQCKHCGKAFNCSSSLRRHVRIHTTEKQYKCNVGHPPANEFMCSASEKSHQERDLIKVVNMVLPL
- Z score of condensed fraction: -0.894

B13: ZNF567 (protein, UniProt Q8N184 1-647, looked up)
Zinc finger protein 567: MAQGSVSFNDVTVDFTQEEWQHLDHAQKTLYMDVMLENYCHLISVGCHMTKPDVILKLERGEEPWTSFAGHTCLEENWKAEDFLVKFKEHQEKYSRSVVSINHKKLVKEKSKIYEKTFTLGKNPVNSKNLPPEYDTHGRILKNVSELIISNLNPARKRLSEYNGYGKSLLSTKQETTHPEVKSHNQSARAFSHNEVLMQYQKTETPAQSFGYNDCEKSFLQRGGLITHSRPYKGENPSVYNKKRRATNIEKKHTCNECGKSFCRKSVLILHQGIHSEEKPYQCHQCGNAFRRKSYLIDHQRTHTGEKPFVCNECGKSFRLKTALTDHQRTHTGEKSYECLQCRNAFRLKSHLIRHQRTHTGEKPYECNDCGKSFRQKTTLSLHQRIHTGEKPYICKECGKSFHQKANLTVHQRTHTGEKPYICNECGKSFSQKTTLALHEKTHNEEKPYICSECGKSFRQKTTLVAHQRTHTGEKSYECPHCGKAFRMKSYLIDHHRTHTGEKPYECNECGKSFSQKTNLNLHQRIHTGEKPYVCNECGKSFRQKATLTVHQKIHTGQKSYECPQCGKAFSRKSYLIHHQRTHTGEKPYKCSECGKCFRQKTNLIVHQRTHTGEKPYVCNECGKSFSYKRNLIVHQRTHKGENIEMQ
- Z score of condensed fraction: -0.7114
